Source: FireProtDB (doi:10.1016/j.ijbiomac.2020.03.166)
Several values for one entry are separate records, joined by “and”; a condition that tells them apart may be missing. Equal values may be shown once.

Details: Leishmania major, pH 7.5, potassium phosphate, NaCl, transition: 2, whole UniProt chain shown
[1] = GdnHCl, fluorescence emission maxima
[2] = Urea, fluorescence emission maxima

B1: Peptidyl-prolyl cis-trans isomerase wild type, Q4QII4 (protein)
chain: MPTSSWRAEHLLIKHSGSRNPVSRRTGQPTTISYEEAVTELQKWCQSINDGKVTFEEAARQRSDCSSYARGGDLGVFGPGEMMKPFEDATKSLEVGQVSGIVVTDSGVHIIKRIA
- denaturant m value (GdnHCl, CD): 3.32 kcal/mol/M
- denaturant midpoint (higher = more stable) (GdnHCl, CD): 0.98 M
- unfolding free energy (GdnHCl, CD): 3.27 kcal/mol
- denaturant m value (GdnHCl, anisotropy): 3.87 kcal/mol/M
- denaturant midpoint (higher = more stable) (GdnHCl, anisotropy): 1.16 M
- unfolding free energy (GdnHCl, anisotropy): 4.51 kcal/mol
- denaturant m value [1]: 4.3 kcal/mol/M
- denaturant midpoint (higher = more stable) [1]: 1.1 M
- unfolding free energy [1]: 4.74 kcal/mol
- denaturant m value (GdnHCl, fluorescence intensity): 4.61 kcal/mol/M
- denaturant midpoint (higher = more stable) (GdnHCl, fluorescence intensity): 0.97 M
- unfolding free energy (GdnHCl, fluorescence intensity): 4.48 kcal/mol
- unfolding enthalpy (calorimetric) (Thermal, DSC): 36.6 kcal/mol and 55.1 kcal/mol
- denaturant m value (Urea, CD): 1.38 kcal/mol/M
- denaturant midpoint (higher = more stable) (Urea, CD): 4.12 M
- unfolding free energy (Urea, CD): 5.69 kcal/mol
- denaturant m value (Urea, anisotropy): 1.2 kcal/mol/M
- denaturant midpoint (higher = more stable) (Urea, anisotropy): 4.15 M
- unfolding free energy (Urea, anisotropy): 4.99 kcal/mol
- denaturant m value [2]: 1.28 kcal/mol/M
- denaturant midpoint (higher = more stable) [2]: 4.78 M
- unfolding free energy [2]: 5.12 kcal/mol
- denaturant m value (Urea, fluorescence intensity): 1.39 kcal/mol/M
- denaturant midpoint (higher = more stable) (Urea, fluorescence intensity): 3.53 M
- unfolding free energy (Urea, fluorescence intensity): 4.91 kcal/mol
